The results in this text go back to patent publication US20250163183A1 (COAGULANT THERAPEUTICS, published 2025).

Assay [1] concerns the target T1, human protein C (PC) zymogen (human, UniProt P04070 43-197; P04070 200-461).
T1 construct: Bought
Put plainly: ELISA. (In general: An ELISA detects its analyte on a solid surface through an enzyme-linked reagent.)

For assay [2], the target named is T2, human APC-PPACK (active site-blocked APC) (human, UniProt P04070 43-461, active site bound by the tripeptide inhibitor Phe-Pro-Arg-chloromethylketone (PPACK)).
T2 construct: Bought (Haematologic Technologies)
Put plainly: ELISA.

Assay [3] deals with T1, human protein C (PC) zymogen. The experiment in a line: ELISA screen, PC-coated wells, OD450, n=2.

T1 sequence (P04070 43-197, chain 1 of 2): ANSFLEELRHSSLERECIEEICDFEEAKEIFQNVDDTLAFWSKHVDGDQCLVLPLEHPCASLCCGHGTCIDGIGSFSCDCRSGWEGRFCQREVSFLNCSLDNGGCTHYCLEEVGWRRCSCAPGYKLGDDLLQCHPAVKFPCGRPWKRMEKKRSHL
T1 sequence (P04070 200-461, chain 2 of 2): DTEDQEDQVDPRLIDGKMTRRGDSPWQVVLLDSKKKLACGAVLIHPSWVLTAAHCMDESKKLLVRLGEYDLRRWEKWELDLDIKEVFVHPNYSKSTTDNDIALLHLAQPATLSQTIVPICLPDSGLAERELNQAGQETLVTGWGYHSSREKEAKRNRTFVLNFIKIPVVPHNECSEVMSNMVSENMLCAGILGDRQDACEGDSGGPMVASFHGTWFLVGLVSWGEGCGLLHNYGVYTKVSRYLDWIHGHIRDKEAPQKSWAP
T2 sequence (P04070 other isoform, or with tags, fused parts or gaps): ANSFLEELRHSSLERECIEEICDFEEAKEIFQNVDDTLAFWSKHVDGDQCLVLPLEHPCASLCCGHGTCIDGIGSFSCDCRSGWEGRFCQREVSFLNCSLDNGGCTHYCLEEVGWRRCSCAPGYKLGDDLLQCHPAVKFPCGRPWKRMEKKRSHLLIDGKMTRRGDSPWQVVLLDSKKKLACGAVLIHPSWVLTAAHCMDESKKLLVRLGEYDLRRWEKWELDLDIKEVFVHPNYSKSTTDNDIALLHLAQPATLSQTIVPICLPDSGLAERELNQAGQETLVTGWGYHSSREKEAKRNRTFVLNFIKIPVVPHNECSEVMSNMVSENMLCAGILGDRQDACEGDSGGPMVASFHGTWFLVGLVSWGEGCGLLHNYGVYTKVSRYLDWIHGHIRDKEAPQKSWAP

B1: SR16983-R3P2E05 (VHH)
VHH: QVQLVESGGGLVQAGGSLRLSCTTSGSTFSITAGGWYRQAPGEQRELVADVANDGSTSYAESVKGRFTISRDNAKNIVELQMSSLELEDTAVYVCFVVGISDSTPRPRAYWGQGTQVTVAS
For the molecule B1, the binding result in assay [1] is “no binding”; in assay [2], “binds”.

B2: SR16983-R2-P4-G02 (VHH)
VHH: QLQLVESGGGLVQAGGSLRLSCAASGTTFSFVYMGWYRQAPGNQRDLVARISSDGSTNYADSVKGRFTISGDNAKNTVYLQMNSLRPEDTARYYCFYNGHLNKWGQGTQVTVSS
Regarding B2, the figures for the binding result in assay [1] and in assay [2] were “no binding” and “binds”, respectively.

B3: SR16983-R2P1F04 (VHH)
VHH: QLQLVESGGGLVQAGGSLRLSCAASRTTFSFNYMGWYRQAPGNQRDLVARISSGGITNYADSVKGRFTISGDNAKNTVYLQMNSLKPEDTARYYCFYNGHLNKWGQGTQVTVSS
For B3, the binding result in assay [1] is listed as “no binding”; in assay [2] it was “binds”.

B4: SR16983-R3-P5-A11 (VHH)
VHH: QVQLVESGGGLVQAGGSLGLSCAASGTTFSFVYMGWYRQAPGNQRDLVARISSDGSTNYADSVKGRFTISGDNAKNTVYLQMNNLKPEDTARYYCFYNGHVNKWGQGTQVTVSS
For B4, the binding result in assay [1] is on record as “no binding”; in assay [2], “binds”.

B5: SR16983-R2-P2-D05 (VHH)
VHH: QVQLVESGGGLVQPGGSLTLSCAASGTIESINDMGWYRQAPGKQRELVAAITSGGSTNYADSVKGRFTISRDNAKNTVYLQMNSLKPEDTAVYYCNAEVKRHYYYDSAGHRYWGQGTQVTVSS
As for B5, the binding result in assay [1] is “no binding”; in assay [2] it was “binds”.

B6: SR16983-R3P2B6 (VHH)
VHH: QLQLVESGGGLVQAGGSLRLACAASGFSFDDYAIGWFRQAPGKEREGVSCITSDGSTYYADSVKGRFTISSDNAKNTVYLQMNILKPEDTAVYYCARGGLLLPKPELFEYWGQGTQVTVSS
For the molecule B6, the figures for the binding result in assay [1] and in assay [2] were “no binding” and “binds”, respectively.

B7: SR16983-R3-P2-A08 (VHH)
VHH: QVQLVESGGGLVQAGGSLRLSCAASGRTSSNYNMGWFRQAPGKEREFVAAIPWTGSTTYYADPVKGRFTISRDSTKNTGDLQMNSLKPEDTAVYYCALGRRENYYALLQQRGYDYWGQGTQVTVSS
As for B7, the binding result in assay [1] was “no binding”; in assay [2], “binds”.

B8: SR16983-R3-P4-G01 (VHH)
VHH: QLQLVESGGGLVQAGGSLRLSCAASGRTFVGSYVMGWFRQAPGKEREFVAASSRSTGNTVYLDSVKGRFTISRDDAKNMLYLQMNSLKPEDTAVYYCATRASINYNYANWPYWGQGTQVTVSS
On to B8, for which the binding result was “no binding” in assay [1] and “binds” in assay [2].

B9: SR16983-R2-P2-C04 (VHH)
VHH: QLQLVESGGGLVQAGGSLRLSCAASRTTFRINGVDWYRQVPGKQRELVATASSDGPTNYAESVKGRFTISRDNAKNTVYLQMNSLKPEDTAVYYCRIVLPSRIIWGQGTQVTVSS
As for B9, the figures for the binding result in assay [2] and in assay [3] were “binds” and “no binding”, respectively.

B10: SR16983-R2P1C08 (VHH)
VHH: QVQLVESGGGLVQPGGSLRLSCAASGRTFSNYAMGWFRQAPGKERRFVAGISRDDTSTSYADSVKGRFTILRDRSKNTVDLQMNSLKPEDTAIYYCAAARGIYGEISRYTGDYDSWGQGTQVTVSS
As to B10, the binding result is listed as “binds” in assay [2] and “no binding” in assay [3].

B11: SR16983-R2-P2-G01 (VHH)
VHH: EVQLVESGGGLVQAGESLRLSCVVSGSRFRISGMGWYRQAPEKQRELVAAITRGGSTNYSDSVKGRFTISSDNAKNTVYLQMNSLKPDDTDVYYCAATVLDIPTMSTDDYWGQGTQVTVSS
Consider B11, for which the binding result in assay [2] is reported as “binds”; in assay [3], “no binding”.

B12: SR16983-R2-P2-G09 (VHH)
VHH: QLQLVESGGGLVQAGGSLRLSCVASGTTFSIEETYWYRLAPGKQRELVAVISGGGNTNYADSVKGRFTISRDNAKNTVYLQMNSLKPEDTAVYYCSARTIATVKWGQGIQVTVSS
For the molecule B12, the binding result was “no binding” in assay [1] and “binds” in assay [2].

B13: SR16983-R2P1C11 (VHH)
VHH: QLQLVESGGGLVQSGGSLRLSCTASGSTVRVTAGGWYRQAPGNERELVADIDNGGRPTYADSVKGRFTISRDNAKNAVDLQMNNLKPEDTAVYYCFVIAIPDSAPRPRAYWGQGTQVTVSS
For B13, the values for the binding result in assay [1] and in assay [2] were “no binding” and “binds”, respectively.

B14: SR16983-R4-P1-A05 (VHH)
VHH: EVQLVESGGGLVQAGESLRLSCVLSGSTFGRNVITWYRQPPGKQREFIAMITTSGNTRYADSVKGRFTMSRDTAKNTAFLQMSNLKLEDTAVYYCWTAIAGQGEYWGQGTQVTVSS
Take B14: the values for the binding result in assay [2] and in assay [3] were “binds” and “no binding”, respectively.

B15: SR16983-R2-P4-B05 (VHH)
VHH: QVQLVESGGGLVQAGGSLRLSCAASGRVFGTYVMGWFRQAPGKEREFVAAFSRSTGHITYADSVKGRFTISRDDAKNTLYLQMNSLKPEDTAVYYCATRASINYNYANWPYWGQGTQVTVSS
On to B15, for which the binding result in assay [1] is given as “no binding”; in assay [2] it was “binds”.

B16: SR16983-R3P2G9 (VHH)
VHH: QVQLVESGGGLVQPGGSLRLSCAASGRTFGSYVMGWFRQAPGKEREFVAAASRSTGNTVYPDSVKGRFTISRDDAKNTLYLQMNSLKPEDTAVYYCAARASINYNYANWPYWGQGTQVTVSS
Turning to B16, the binding result in assay [1] is on record as “no binding”; in assay [2] it was “binds”.

B17: SR16983-R3-P4-E04 (VHH)
VHH: QVQLVESGGGLVQAGGSLRLSCAASGRTVGSYAVGWFRQAPGKEREFLAASSRSTGNTVYADSVKGRFTISRDDAKNTLYLQMNSLKPEDTAVYYCATRASINYNYANWPYWGQGTQVTVSS
B17: the binding result is “no binding” in assay [1] and “binds” in assay [2].

B18: SR16983-R3P2A9 (VHH)
VHH: QVQLVESGGGLVQAGGSLRLSCAASGRTVGSYVMGWFRQAPGKERELLAASSRSTGNTVYADSVKGRFTISRDDAKNTVFLQMNSLKPEDTAVYYCAARASINYNYANWPYWGQGTQVTVSP
Regarding B18, the binding result in assay [1] is recorded as “no binding”; in assay [2], “binds”.

B19: SR16983-R2-P4-G01 (VHH)
VHH: QLQLVESGGGLVQAGGSLRLSCAASGRTVGSYVMGWFRQAPGKEREFLAANSRSTGNTVYADSVKGRFTISRDDAKNTLYLQMNSLKPEDTAVYYCATRASINYNYANWPYWGQGTQVNVSS
Consider B19, for which the binding result in assay [1] is given as “no binding”; in assay [2], “binds”.

B20: SR16983-R2P1C10 (VHH)
VHH: QLQLVESGGGLVQPGGSLRLSCAASGRIFGSYVMGWFRQAPGKEHEFVAASSRSTGNTVYLDSVKGRFTISRDDAKNTLYLQMNSLKPEDTAVYYCATRASINYNYANWPYRGQGTQVTVSS
For the molecule B20, the figures for the binding result in assay [1] and in assay [2] were “no binding” and “binds”, respectively.

B21: SR16983-R3-P5-A06 (VHH)
VHH: QLQLVESGGGLVQAGGSLRLSCVASGTTFTIEDIGWYRLAPGKQRELVAIISGGNTNYADSVKGRFTISRDNAKNTVYLQMNSLKPEDTAVYYCNGRTKATVKWGRGTQVTVSS
With B21, the binding result is listed as “binds” in assay [2] and “no binding” in assay [3].

B22: SR16983-R3P2E7 (VHH)
VHH: QLQLVESGGGLVQAGGSLRLSCVASGTTFTIEDIGWYRLAPGKQRELVAIISGGNTNYADSVKGRFTISRDNAKNTVFLQMNSLKPEDTAVYYCNARTKATAKWGRGIQVTVSS
Take B22: the binding result in assay [1] is given as “no binding”; in assay [2], “binds”.

B23: SR16983-R2-P2-D08 (VHH)
VHH: QLQLVESGGGLVQAGDSLRLSCALSGLAASTYAMAWFRQAPGKEREFVSVIDWKGDSTTANSVKGRFTISRDHGKNTVYLQMNSLQPEDTALYYCAARGSPGYVAKLYAHWGRGTQVTVSS
On to B23, for which the values for the binding result in assay [1] and in assay [2] were “no binding” and “binds”, respectively.

B24: SR16983-R3-P4-A08 (VHH)
VHH: QLQLVESGGGLVQAGDSLRLSCVFSGLTASTYAMAWFRQAPGKEREFVSVIDWKGDTTYANSVKGRFTISRDNGNKTVYLQMNSLQPEDTALYYCAARGSPGYVARLYAHWGRGTQVTVSS
For the molecule B24, the binding result in assay [1] is given as “no binding”; in assay [2], “binds”.

B25: SR16983-R3-P3-F01 (VHH)
VHH: EVQLVESGGGLVQAGDSLRLSCARSGLTASTYAMAWFRQAPGKEREFVSVIDWKGDTTYANSVKGRFTISRDNGKNTVYLQMNSLQPEDTALYYCAARGSPAYVARLYAYWGRGTQVTVSS
On to B25, for which the binding result in assay [1] was “no binding”; in assay [2], “binds”.
